Test results from the supplement of paper PMC9112550, “Optimization of the antimicrobial peptide Bac7 by deep mutational scanning” (BMC Biology, 2022).

Tested on: Escherichia coli TOP10
Assay: shrunken log2 fold change of peptide-encoding DNA abundance (4.5 h post-induction vs induction); higher = less antimicrobial activity (less host growth inhibition)
Details: time post-induction: 4.5 h; library: site-saturation at positions 5, 18, 19, 20
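Further: peptides expressed intracellularly from a pBAD plasmid library in pooled LB shake-flask culture, induced with 0.3% L-arabinose, DNA abundance read by NGS, three biological replicates, DESeq2 with apeglm shrinkage.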

Sequence | shrunken log2 fold change
RRIRLRPPRLPRPRPRPLDDPRP | -0.144
RRIRLRPPRLPRPRPRPLEDPRP | -0.076
RRIRLRPPRLPRPRPRPLEIPRP | -0.0425
RRIRLRPPRLPRPRPRPLGAPRP | 0.387
RRIRLRPPRLPRPRPRPLGFPRP | 0.38
RRIRLRPPRLPRPRPRPLGNPRP | 0.102
RRIRLRPPRLPRPRPRPLHDPRP | -0.149
RRIRLRPPRLPRPRPRPLICPRP | 0.128
RRIRLRPPRLPRPRPRPLIVPRP | -0.131
RRIRLRPPRLPRPRPRPLKIPRP | -0.221
RRIRLRPPRLPRPRPRPLLIPRP | -0.514
RRIRLRPPRLPRPRPRPLLMPRP | -0.136
RRIRLRPPRLPRPRPRPLLYPRP | -0.326
RRIRLRPPRLPRPRPRPLMSPRP | -0.0608
RRIRLRPPRLPRPRPRPLMTPRP | -0.344
RRIRLRPPRLPRPRPRPLQMPRP | -0.135
RRIRLRPPRLPRPRPRPLQPPRP | 0.206
RRIRLRPPRLPRPRPRPLRCPRP | -0.0152
RRIRLRPPRLPRPRPRPLREPRP | 0.332
RRIRLRPPRLPRPRPRPLSHPRP | 0.2

Sequence | shrunken log2 fold change
RRIRLRPPRLPRPRPRPLTTPRP | -0.0027
RRIRLRPPRLPRPRPRPLVKPRP | -0.00589
RRIRLRPPRLPRPRPRPLYHPRP | -0.648
RRIRLRPPRLPRPRPRPMCFPRP | -0.332
RRIRLRPPRLPRPRPRPMCKPRP | 0.0258
RRIRLRPPRLPRPRPRPMCNPRP | 0.107
RRIRLRPPRLPRPRPRPMFIPRP | -0.734
RRIRLRPPRLPRPRPRPMGCPRP | 0.031
RRIRLRPPRLPRPRPRPMGNPRP | -0.147
RRIRLRPPRLPRPRPRPMGYPRP | -0.126
RRIRLRPPRLPRPRPRPMHSPRP | -0.13
RRIRLRPPRLPRPRPRPMKFPRP | 0.0807
RRIRLRPPRLPRPRPRPMNAPRP | -0.446
RRIRLRPPRLPRPRPRPMPNPRP | -0.0177
RRIRLRPPRLPRPRPRPMPWPRP | 0.276
RRIRLRPPRLPRPRPRPMQFPRP | 0.179
RRIRLRPPRLPRPRPRPMQGPRP | -0.0711
RRIRLRPPRLPRPRPRPMQTPRP | 0.0393
RRIRLRPPRLPRPRPRPMRHPRP | 0.188
RRIRLRPPRLPRPRPRPMRTPRP | 0.3

Sequence | shrunken log2 fold change
RRIRLRPPRLPRPRPRPMSTPRP | -0.302
RRIRLRPPRLPRPRPRPMTHPRP | -0.22
RRIRLRPPRLPRPRPRPMTYPRP | -0.0978
RRIRLRPPRLPRPRPRPMVFPRP | 0.0182
RRIRLRPPRLPRPRPRPMWDPRP | 0.0295
RRIRLRPPRLPRPRPRPMYEPRP | 0.129
RRIRLRPPRLPRPRPRPMYMPRP | -0.295
RRIRLRPPRLPRPRPRPNAAPRP | -0.0536
RRIRLRPPRLPRPRPRPNAKPRP | -0.0021
RRIRLRPPRLPRPRPRPNCDPRP | -0.00298
RRIRLRPPRLPRPRPRPNCFPRP | -0.0891
RRIRLRPPRLPRPRPRPNDIPRP | -0.723
RRIRLRPPRLPRPRPRPNDRPRP | -0.422
RRIRLRPPRLPRPRPRPNDSPRP | -0.0215
RRIRLRPPRLPRPRPRPNEDPRP | -0.132
RRIRLRPPRLPRPRPRPNETPRP | -0.0172
RRIRLRPPRLPRPRPRPNFAPRP | 0.0393
RRIRLRPPRLPRPRPRPNFPPRP | -0.00674
RRIRLRPPRLPRPRPRPNFRPRP | -0.195
RRIRLRPPRLPRPRPRPNHEPRP | -0.0961
